This data set addresses T1, RexA (Bacteriophage lambda, UniProt P68924 1-279).
T1 sequence: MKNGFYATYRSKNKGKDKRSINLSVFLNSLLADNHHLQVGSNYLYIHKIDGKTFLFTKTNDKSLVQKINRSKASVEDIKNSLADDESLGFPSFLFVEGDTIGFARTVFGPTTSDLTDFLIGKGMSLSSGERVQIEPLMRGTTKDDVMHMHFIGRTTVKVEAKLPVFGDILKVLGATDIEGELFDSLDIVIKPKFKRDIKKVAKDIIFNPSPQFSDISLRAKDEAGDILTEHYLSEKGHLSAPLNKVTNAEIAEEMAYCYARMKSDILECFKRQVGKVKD
As to the kind of experiment: filter binding; 2 mM Mg2+; Filter binding: 25 mM MES pH 6.5, 2.0 mM MgCl2, 0.1 mM DTT, 0.01 mM EDTA, 40 ug/mL BSA, 30 C, 10 min, 14.5 nM unlabeled + 0.5 nM labeled DNA; SEC: Superdex 200. The following applies: protein: recombinant, tags: C-terminal 6xHis (pET21b), chain copies: 2, 5' overhang 1 nt at both ends.

B1: OR1-OR2 (dsDNA)
DNA 1: AGATCTACCGGTAGAGCTT
DNA 2: TAAGCTCTACCGGTAGATC
modifications: m5C at position 8 of upper strand and position 10 of lower strand
Turning to B1, the binding result is given as “binds”.

B2: OR1-OR2 scrambled (dsDNA)
DNA 1: AGATCTACCGGTAGAGCTT
DNA 2: TAAGCTCTACCGGTAGATC
B2: the binding result (label: 5'-32P) is on record as “binds”.

The values above are taken from article doi:10.1101/2021.04.19.439022, “Bacteriophage λ RexA and RexB Functions Assist the Transition from Lysogeny to Lytic Growth”.
